Measured values: publication PMC11614891, “Accurate de novo design of heterochiral protein–protein interactions” (Cell Research, 2024)
Several values for one entry are separate records, joined by “and”; a condition that tells them apart may be missing. Equal values may be shown once. Square brackets hold non-standard residues; d marks the D form. Ends that are not written are not given here.

T1: L-TrkA (human, biotinylated for BLI (site not stated))
T1 construct: also called D5 domain of human tropomyosin receptor kinase A
T1 chain: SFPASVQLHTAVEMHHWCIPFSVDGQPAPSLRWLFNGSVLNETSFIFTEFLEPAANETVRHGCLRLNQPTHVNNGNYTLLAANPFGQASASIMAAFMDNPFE

T2: D-TrkA (human, all residues D-amino acids (glycine achiral); biotin on the N-terminus; C-terminal amide)
T2 construct: also called mirror image of the D5 domain of human TrkA
T2 chain: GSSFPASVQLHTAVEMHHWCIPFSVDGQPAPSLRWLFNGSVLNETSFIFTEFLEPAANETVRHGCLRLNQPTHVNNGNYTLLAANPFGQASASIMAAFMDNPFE

B1: D-57445-evo_(L-TrkA) (designed binder)
chain: [dS][dT][dQ][dE][dL][dV][dE][dE][dL][dL][dE][dL][dV][dR][dK][dD][dL][dE][dE][dA][dR][dK][dL][dA][dK][dE][dI][dV][dK][dE][dL]G[dL][dS][dP][dE][dL][dR][dF][dF][dL][dQ][dL][dA][dI][dA][dL][dA][dQ][dR][dD][dP][dE][dV][dA][dR][dR][dI][dL][dE][dR][dA][dL][dN][dL]
notes: source: chemically synthesized, folded
B2: D-19437_(L-Pep-1) (designed binder)
chain: G[dS][dL][dP][dV][dE][dK][dI][dI][dR][dE][dA][dK][dK][dI][dL][dD][dE][dL][dL][dK][dR]G[dL][dI][dD][dP][dE][dL][dA][dR][dI][dA][dR][dE][dV][dL][dE][dR][dA][dR][dK][dL]G[dN][dE][dE][dA][dA][dR][dF][dV][dL][dE][dL][dI][dE][dR][dL][dR][dR][dE][dL][dS]G[dS]G
notes: source: chemically synthesized (Fmoc SPPS), folded by dialysis, purified by SEC
B3: D-57445_(L-TrkA) (designed binder)
chain: [dS][dT][dE][dE][dL][dV][dE][dE][dL][dL][dE][dL][dA][dR][dK][dD][dP][dQ][dE][dA][dR][dK][dL][dV][dE][dE][dI][dV][dK][dE][dL]G[dL][dS][dP][dE][dR][dR][dF][dE][dL][dQ][dL][dA][dI][dV][dL][dA][dQ][dR][dD][dP][dE][dL][dA][dR][dR][dI][dL][dE][dR][dA][dL][dN][dH]
notes: as for B2
B4: D-25367-evo_(L-IL-6) (designed binder)
chain: G[dE][dE][dE][dV][dI][dE][dY][dL][dT][dR][dE][dF][dK][dD][dD][dP][dE][dL][dV][dR][dL][dL][dR][dE][dA][dI][dE]G[dL][dL][dK][dA]G[dE][dD][dP][dE][dI][dV][dE][dM][dL][dI][dE][dS][dL][dI][dH][dI][dT]G[dN][dP][dR][dV][dA][dV][dK][dL][dA][dK][dE][dY][dA]
notes: D-protein form of 25367-evo; source: chemically synthesized, folded
B5: L-57445-evo_(D-TrkA) (designed binder)
chain: STQELVEELLELVRKDLEEARKLAKEIVKELGLSPELRFFLQLAIALAQRDPEVARRILERALNL
notes: the methods name only the three parents
B6: L-57445_(D-TrkA) (designed binder)
chain: STEELVEELLELARKDPQEARKLVEEIVKELGLSPERRFELQLAIVLAQRDPELARRILERALNH
notes: source: E. coli Lemo21(DE3), purified (Ni Sepharose, SEC)
B7: L-Pep-1 (peptide)
peptide: DEHELLETAARWFYEIAKRA
modifications: also: biotinylated (site not given here)
notes: artificial amphipathic alpha-helical peptide
B8: L-25367-evo_(D-IL-6) (designed binder)
chain: GEEEVIEYLTREFKDDPELVRLLREAIEGLLKAGEDPEIVEMLIESLIHITGNPRVAVKLAKEYA
notes: 25367-evo, evolved from design 25367 by directed evolution; the methods name only the three parents
B9: D-25367_(L-IL-6) (designed binder)
chain: G[dE][dE][dE][dV][dK][dE][dY][dL][dT][dR][dK][dF][dK][dD][dD][dP][dE][dL][dV][dR][dL][dL][dR][dE][dA][dI][dE][dV][dL][dL][dK][dA]G[dE][dD][dP][dE][dL][dV][dL][dS][dL][dI][dE][dS][dL][dI][dH][dI][dT]G[dD][dP][dR][dA][dA][dV][dK][dL][dA][dK][dE][dF]G
notes: D-protein form of design 25367; source: chemically synthesized (Fmoc SPPS), folded by dialysis, purified by SEC
B10: L-25367_(D-IL-6) (designed binder)
chain: GEEEVKEYLTRKFKDDPELVRLLREAIEVLLKAGEDPELVLSLIESLIHITGDPRAAVKLAKEFG
notes: as for B6

How the values were obtained:
L-TrkA [1] = biological target: T1, L-TrkA; experiment: BLI; Octet RED96e; biotinylated target immobilised on streptavidin biosensors, binder in solution; PBS pH 7.4 with 0.02% TWEEN; 25 °C; global fit; conditions: both partners purified
L-TrkA [2] = biological target: T1, L-TrkA; experiment: MST; Nanotemper Monolith NT.115; 50 nM L-TrkA, D-57445-evo in 16 two-fold dilutions from 122 pM to 40 uM; PBS with 0.05% Tween20, pH 7.4; MST power 40%; conditions: both partners purified
L-Pep-1 = biological target: B7; experiment: BLI; Octet RED96e; biotinylated target immobilised on streptavidin biosensors, binder in solution; PBS pH 7.4 with 0.02% TWEEN; 25 °C; global fit; conditions: both partners purified
[3] = biological target: the molecule itself; experiment: SEC; D-19437 alone on Superdex 75 Increase 10/300, compared with the mixture with L-Pep-1; fractions on SDS-PAGE, Coomassie blue
L-IL-6 = biological target: T3, L-IL-6 (human, biotinylated for BLI (site not stated)); experiment: BLI; Octet RED96e; biotinylated target immobilised on streptavidin biosensors, binder in solution; PBS pH 7.4 with 0.02% TWEEN; 25 °C; global fit; conditions: both partners purified
T3 construct: additional methionine at the N-terminus; human interleukin-6, residues 28-212; also called human interleukin-6

D-TrkA [4] = biological target: T2, D-TrkA; experiment: as above; conditions: both partners purified
D-TrkA [5] = biological target: T2, D-TrkA; experiment: as above; conditions: both partners purified
D-19437_(L-Pep-1) = biological target: B2; experiment: ITC; MicroCal PEAQ-ITC, 19 injections; peptide titrated over the binder (L-19437 15 uM, D-Pep-1 150 uM); PBS pH 7.4; One Set of Sites mode; conditions: both partners purified
D-IL-6 = biological target: T4, D-IL-6 (human, all residues D-amino acids (glycine achiral); biotin on the N-terminus; C-terminal amide); experiment: BLI; Octet RED96e; biotinylated target immobilised on streptavidin biosensors, binder in solution; PBS pH 7.4 with 0.02% TWEEN; 25 °C; global fit; conditions: both partners purified
T4 construct: additional methionine at the N-terminus (Met1 of the chain of 186 residues); human interleukin-6, residues 28-212, made of D-amino acids; also called mirror image of human interleukin-6
T4 sequence (chain, as listed by the source): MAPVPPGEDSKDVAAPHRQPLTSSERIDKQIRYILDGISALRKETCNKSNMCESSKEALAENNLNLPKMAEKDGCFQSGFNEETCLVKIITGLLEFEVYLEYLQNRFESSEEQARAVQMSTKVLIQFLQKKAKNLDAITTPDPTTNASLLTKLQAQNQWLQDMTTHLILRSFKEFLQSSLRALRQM

Sequence of D-19437_(L-Pep-1) (chain, as listed by the source): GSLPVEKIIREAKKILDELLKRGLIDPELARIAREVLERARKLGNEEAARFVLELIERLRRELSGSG

Binder: B1
Kd (L-TrkA [1]): 1.73 nM and 1.8 nM
koff (L-TrkA [1]): 0.000248 s⁻¹ and 0.000243 s⁻¹
kon (L-TrkA [1]): 144000 M⁻¹ s⁻¹ and 135000 M⁻¹ s⁻¹
Kd (L-TrkA [2]): 1.19 nM

Binder: B2
Kd (L-Pep-1): 59.6 nM and 37.6 nM
koff (L-Pep-1): 0.0162 s⁻¹ and 0.0122 s⁻¹
kon (L-Pep-1): 272000 M⁻¹ s⁻¹ and 324000 M⁻¹ s⁻¹
stoichiometry N [3]: 2

Binder: B3
Kd (L-TrkA [1]): 151 nM
koff (L-TrkA [1]): 0.0351 s⁻¹
kon (L-TrkA [1]): 232000 M⁻¹ s⁻¹

Binder: B4
Kd (L-IL-6): 3.03 nM and 8.75 nM
koff (L-IL-6): 0.000328 s⁻¹ and 0.000199 s⁻¹

Binder: B5
Kd (D-TrkA [4]): 7.85 nM and 10.9 nM
koff (D-TrkA [4]): 0.000297 s⁻¹ and 0.000322 s⁻¹
kon (D-TrkA [4]): 37800 M⁻¹ s⁻¹ and 29400 M⁻¹ s⁻¹
Kd (D-TrkA [5]): 7.84 ± 0.02 nM

Binder: B6
Kd (D-TrkA [4]): 152 nM
koff (D-TrkA [4]): 0.0508 s⁻¹
kon (D-TrkA [4]): 334000 M⁻¹ s⁻¹

Binder: B7
Kd (D-19437_(L-Pep-1)): 12.4 ± 2.1 nM
stoichiometry N (D-19437_(L-Pep-1)): 0.932 ± 0.003 sites

Binder: B8
Kd (D-IL-6): 0.724 nM and 1.68 nM
koff (D-IL-6): 0.000185 s⁻¹ and 0.00046 s⁻¹
kon (D-IL-6): 256000 M⁻¹ s⁻¹ and 275000 M⁻¹ s⁻¹

Binder: B9
Kd (L-IL-6): 28.3 nM and 48.3 nM
koff (L-IL-6): 0.0111 s⁻¹ and 0.0102 s⁻¹
kon (L-IL-6): 391000 M⁻¹ s⁻¹ and 211000 M⁻¹ s⁻¹

Binder: B10
Kd (D-IL-6): 25.1 nM and 11.8 nM
koff (D-IL-6): 0.00758 s⁻¹
kon (D-IL-6): 302000 M⁻¹ s⁻¹ and 644000 M⁻¹ s⁻¹
